Molecular target: T1, GST-JunB (mouse, UniProt P09450 1-344)
T1 sequence: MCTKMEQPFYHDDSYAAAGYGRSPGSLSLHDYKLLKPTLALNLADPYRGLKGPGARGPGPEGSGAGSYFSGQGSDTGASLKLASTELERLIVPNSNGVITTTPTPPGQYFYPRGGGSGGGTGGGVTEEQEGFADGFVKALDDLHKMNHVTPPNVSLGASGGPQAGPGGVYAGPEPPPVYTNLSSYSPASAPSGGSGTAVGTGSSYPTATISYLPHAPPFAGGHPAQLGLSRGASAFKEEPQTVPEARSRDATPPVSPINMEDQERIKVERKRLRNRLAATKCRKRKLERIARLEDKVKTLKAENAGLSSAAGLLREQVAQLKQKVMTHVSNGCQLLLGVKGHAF
Assay: EMSA

B1: Erra promoter TRE probe WT (-1305/-1315) (dsDNA)
DNA 1: AGTGAGTGACTCAGAGGACTT
DNA 2: AAGTCCTCTGAGTCACTCACT
Question: Does B1 bind?
Answer: Result: binds
